Test results from paper PMC8960383, “A Nanobody-Based Toolset to Monitor and Modify the Mitochondrial GTPase Miro1” (Frontiers in Molecular Biosciences, 2022).
Blank lines part the entries; values can stand above or below the binder they belong to.

Assays:
eGFP-cGTPase-TMD [1] = biological target: T1, eGFP-cGTPase-TMD (Homo sapiens, UniProt Q8IXI2); test: pull-down; Nbs coupled to NHS-Sepharose (nanotraps) incubated 16 h at 4°C with the soluble fraction of HEK293 cells transiently expressing GFP-Miro1, GFP-tagged Miro1 deletion constructs or GFP (lysis buffer with 1% Triton X-100); immunoblot of bound fractions with anti-GFP and anti-GAPDH; conditions: one partner purified
T1 construct: human Miro1 isoform 1 (UniProtKB Q8IXI2-1), C-terminal GTPase domain with the transmembrane domain; made from the GFP-Miro1 plasmid by site directed mutagenesis; also called C-terminal GTPase domain of Miro1; source: HEK293, transfected, in lysate; HeLa, transfected, in living cells; not shown: GFP, N-terminal, kept

[2] = biological target: endogenous Miro1 (human (endogenous in HEK293 and HeLa)) (UniProt Q8IXI2)
GFP-Miro1 (human) = GFP-Miro1 (human) (UniProt Q8IXI2)
Miro1 isoform 2 = biological target: T2, Miro1 isoform 2 (Homo sapiens (endogenous, HEK293), UniProt Q8IXI2-2); test: affinity purification with mass spectrometry; mono- and bivalent M41 and M114 nanotraps incubated with HEK293 lysate, compared to control nanotraps; three technical replicates; label-free quantification, iBAQ; conditions: one partner purified
T2 construct: endogenous human Miro1 isoform 2, identified by mass spectrometry (search against the Uniprot Homo sapiens database; one unique peptide); source: endogenous, HEK293 lysate

Miro1 isoform 3 = biological target: T3, Miro1 isoform 3 (Homo sapiens (endogenous, HEK293), UniProt Q8IXI2-3); test: as above; conditions: one partner purified
T3 construct: endogenous human Miro1 isoform 3, identified by mass spectrometry (search against the Uniprot Homo sapiens database; 31 razor peptides); source: endogenous, HEK293 lysate

eGFP-cGTPase-TMD [3] = biological target: T1, eGFP-cGTPase-TMD; test: live-cell fluorescence imaging (relocalisation of the chromobody); TagRFP chromobodies transiently co-expressed with GFP-Miro1 or GFP-tagged Miro1 deletion constructs in HeLa cells; conditions: partners not purified

T1 sequence (Q8IXI2 whole entry, looked up, the tested form may be a part, canonical isoform): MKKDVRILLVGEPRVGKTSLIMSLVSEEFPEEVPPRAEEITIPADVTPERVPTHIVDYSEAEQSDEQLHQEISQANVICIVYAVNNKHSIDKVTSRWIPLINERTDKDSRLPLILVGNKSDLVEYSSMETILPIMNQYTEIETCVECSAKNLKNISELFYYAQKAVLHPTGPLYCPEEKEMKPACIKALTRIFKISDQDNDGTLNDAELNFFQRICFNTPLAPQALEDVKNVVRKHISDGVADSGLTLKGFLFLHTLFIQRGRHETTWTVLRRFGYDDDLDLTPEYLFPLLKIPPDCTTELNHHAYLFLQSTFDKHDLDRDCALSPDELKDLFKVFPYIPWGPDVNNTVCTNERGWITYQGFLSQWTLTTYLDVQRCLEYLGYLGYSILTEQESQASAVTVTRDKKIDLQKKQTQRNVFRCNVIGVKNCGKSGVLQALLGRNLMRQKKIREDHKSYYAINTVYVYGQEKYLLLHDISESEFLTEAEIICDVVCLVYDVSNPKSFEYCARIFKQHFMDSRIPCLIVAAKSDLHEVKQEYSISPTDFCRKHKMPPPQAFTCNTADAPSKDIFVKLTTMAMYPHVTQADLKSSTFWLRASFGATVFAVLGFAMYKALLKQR
Chain of GFP-Miro1 (human) (Q8IXI2 whole entry, canonical isoform): as the sequence (Q8IXI2 whole entry, looked up, the tested form may be a part, canonical isoform) above
Chain of endogenous Miro1 (human (endogenous in HEK293 and HeLa)) (Q8IXI2 whole entry): as the sequence (Q8IXI2 whole entry, looked up, the tested form may be a part, canonical isoform) above
T2 sequence (Q8IXI2 other isoform, or with tags, fused parts or gaps): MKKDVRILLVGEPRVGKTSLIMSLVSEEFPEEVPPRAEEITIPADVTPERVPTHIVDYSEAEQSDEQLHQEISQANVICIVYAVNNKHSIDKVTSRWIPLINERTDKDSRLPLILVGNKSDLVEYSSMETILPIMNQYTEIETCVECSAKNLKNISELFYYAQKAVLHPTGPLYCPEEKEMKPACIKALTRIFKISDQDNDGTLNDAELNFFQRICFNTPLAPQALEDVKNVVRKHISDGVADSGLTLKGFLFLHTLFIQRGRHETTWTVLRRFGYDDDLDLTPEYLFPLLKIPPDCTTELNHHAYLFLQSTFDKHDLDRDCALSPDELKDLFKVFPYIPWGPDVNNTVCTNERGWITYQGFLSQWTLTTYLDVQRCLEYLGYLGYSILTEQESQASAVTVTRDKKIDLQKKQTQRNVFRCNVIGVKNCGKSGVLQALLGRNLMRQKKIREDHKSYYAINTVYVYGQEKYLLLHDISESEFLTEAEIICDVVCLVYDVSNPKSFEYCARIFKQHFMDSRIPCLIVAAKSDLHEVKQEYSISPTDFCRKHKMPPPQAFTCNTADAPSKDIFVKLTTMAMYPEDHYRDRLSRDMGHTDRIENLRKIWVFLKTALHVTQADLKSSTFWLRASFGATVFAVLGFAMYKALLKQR
T3 sequence (Q8IXI2 other isoform, or with tags, fused parts or gaps): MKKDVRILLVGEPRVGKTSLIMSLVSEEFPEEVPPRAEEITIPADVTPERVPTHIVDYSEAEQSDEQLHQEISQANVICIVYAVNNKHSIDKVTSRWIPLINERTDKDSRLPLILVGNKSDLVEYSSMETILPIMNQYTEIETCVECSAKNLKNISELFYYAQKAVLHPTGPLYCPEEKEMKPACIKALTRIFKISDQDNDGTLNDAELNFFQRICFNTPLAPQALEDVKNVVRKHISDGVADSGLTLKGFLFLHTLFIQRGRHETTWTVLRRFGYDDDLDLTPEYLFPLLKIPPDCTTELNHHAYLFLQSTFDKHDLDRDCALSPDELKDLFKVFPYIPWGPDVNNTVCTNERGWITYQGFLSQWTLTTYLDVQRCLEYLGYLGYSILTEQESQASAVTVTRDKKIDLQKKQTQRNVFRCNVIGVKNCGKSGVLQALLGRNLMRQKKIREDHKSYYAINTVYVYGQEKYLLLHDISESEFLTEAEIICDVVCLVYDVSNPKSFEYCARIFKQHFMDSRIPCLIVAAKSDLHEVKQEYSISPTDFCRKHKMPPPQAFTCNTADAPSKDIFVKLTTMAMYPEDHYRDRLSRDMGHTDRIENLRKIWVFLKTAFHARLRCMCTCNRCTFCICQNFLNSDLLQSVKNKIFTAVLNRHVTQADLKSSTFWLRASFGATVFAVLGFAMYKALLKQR

binding result (eGFP-cGTPase-TMD [1]): binds
B8: Miro1-specific nanobody M41 (VHH)
VHH: EVQLVESGGGLVHPGGSLRISCAASGFSFNSSAMSWARQAPGKGLEWVSGIQADGTTGYAHSVKGRFNISRDNAKNIVYLQMSSLKPEDSAVYYCAKEGWSTVVFGSRDYWGQGTQVTVSS
notes: Cloned into pHEN6C; also called M41-Nb; M41 nanotrap; source: E. coli, purified (IMAC, SEC)

binding result (eGFP-cGTPase-TMD [1]): binds
B9: Miro1-specific nanobody M85 (VHH)
VHH: DVQLVESGGGKVQSGGSLRLSCAASGSKLDDYSIGWFRQAPGKGREGISCITMKTGSFEYVDSVKGRFTISADNAKNTVHLQMNNLKPEDTGIYYCAALRSRGLFCVTSPYEYDLWGQGSPVTVSS
notes: Cloned into pHEN6C; also called M85-Nb; M85 nanotrap; source: E. coli, purified (IMAC, SEC)

binding result (eGFP-cGTPase-TMD [3]): binds
B10: M85 chromobody (VHH)
VHH: B9 VHH
notes: as the VHH of m11 (M85); cloned into the plasmid described as PCNA-chromobody (Panza et al., 2015); also called M85-Cb; source: HeLa, transfected, in living cells

More lines, now with the values behind:

B1: Miro1-specific nanobody M11 (VHH)
VHH: QVQLVESGGGSVQPGGSLRLSCAASGFSFSSNVMSWARQAPGKGLEWVSGIYVDGRTHYADSVKGRFTISRDNAKNTVYLQMNSLKPEDTAVYYCAAAGDLSGYSFSPYDYDYWGQGTQVTVSS
notes: Cloned into pHEN6C; also called M11-Nb; M11 nanotrap; source: E. coli, purified (IMAC, SEC)
binding result (eGFP-cGTPase-TMD [1]): binds

B2: Miro1-specific nanobody M189 (VHH)
VHH: EVQLVESGGGLVQPGGSLRLSCTASGFPVSSAAMSWARQSPGKELEWVSGIYTDGSADYADSLKGRFTISRDDVENTINLQMNNLKPEDTAIYYCNANFFEGSWYDYWGQGSPVTVSS
notes: Cloned into pHEN6C; also called M189-Nb; M189 nanotrap; source: E. coli, purified (IMAC, SEC)
binding result (eGFP-cGTPase-TMD [1]): binds

B3: Fbox-M114 (VHH)
VHH: EVQLQESGGGLVQPGGSLRLSCTASGFPVSSAAMSWARQSPGKELEWVSGIYTDGSADYADSLKGRFTISRDDVENTINLQMNSLKPEDTAVYYCKTDWWAGPSGYVAVWGQGTLVTVSS
decrease of the anti-Miro1 IF signal in HeLa cells 24 h after transfection of the Fbox-Nb (targeted degradation of endogenous Miro1; Fbox-NR control less than ∼4%) [2]: 30%
reduction of the GFP signal in HeLa cells coexpressing the Fbox-Nb construct and GFP-Miro1 (targeted degradation) (GFP-Miro1 (human)): 80%

B4: Miro1-specific nanobody M114 (VHH)
VHH: B3 VHH
notes: Cloned into pHEN6C; also called M114-Nb; M114 nanotrap; source: E. coli, purified (IMAC, SEC)
binding result (Miro1 isoform 2): binds
binding result (Miro1 isoform 3): binds
binding result (eGFP-cGTPase-TMD [1]): binds

B5: M114 chromobody (VHH)
VHH: B3 VHH
notes: as the VHH of m12 (M114); cloned into the plasmid described as PCNA-chromobody (Panza et al., 2015); also called M114-Cb; M114-CB; source: HeLa, transfected, in living cells
binding result (eGFP-cGTPase-TMD [3]): binds

B6: Fbox-M41 (VHH)
VHH: B8 VHH
decrease of the anti-Miro1 IF signal in HeLa cells 24 h after transfection of the Fbox-Nb (targeted degradation of endogenous Miro1; Fbox-NR control less than ∼4%) [2]: 16%
reduction of the GFP signal in HeLa cells coexpressing the Fbox-Nb construct and GFP-Miro1 (targeted degradation) (GFP-Miro1 (human)): 50%

B7: M41 chromobody (VHH)
VHH: B8 VHH
notes: as the VHH of m10 (M41); cloned into the plasmid described as PCNA-chromobody (Panza et al., 2015); also called M41-Cb; source: HeLa, transfected, in living cells
binding result (eGFP-cGTPase-TMD [3]): binds
